Experimental findings from PMC11200239 are described below.

The assay concerns the target MerA variant G415I (P. aeruginosa) (UniProt P00392). The assay is described as follows: SEC-MALS.

“MerA variant G415I (from UniProt P00392 96-561) (enzyme)” came in with a stoichiometry N of 2.
